According to patent US20140286972A1:

Columns and labels:
[1] = target: IgE antibodies of a mixture of sera of patients allergic to P. judaica (human); test: ELISA inhibition, extract on solid phase, pooled sera preincubated with inhibitor
[2] = target: IgE antibodies of a mixture of sera of patients allergic to P. judaica (human); test: ELISA inhibition, extract on solid phase, pooled sera
[3] = target: IgE antibodies of a mixture of sera of patients allergic to P. judaica (human); test: ELISA inhibition, extract on solid phase, pooled sera; reference nPar j 1-Par j 2
[4] = target: IgE antibodies of a mixture of sera of patients allergic to P. judaica (human); test: ELISA inhibition, extract on solid phase, pooled sera; reference Q1

B1: chimeric protein Q3 (protein)
chain: MRGSHHHHHHGILPETCGTMVRALMPCLPFVQGKEKEPSKGLQIQTAMKTYSDIDGKLVSEVRSSKLPPIDVNMDCKTLGVVPRQPQLPVSLRHGPVTGPSDPAHKARLERPQIRVPPPAPEKAEFEEACGKVVQDIMPCLHFVKGEEKEPSKEDIIVRATKGISGIKNELVAEVPGTLPPITADFDCSKIQSTIFRGYY
maximum degree of inhibition of IgE binding to P. judaica extract [1]: 60%
reduction of allergenicity (IgE-binding) against nPar j 1-Par j 2 [2]: 100%
fold higher protein concentration than nPar j 1-Par j 2 for the same degree of inhibition [3]: 10000 times

B2: chimeric protein Q2 (protein)
chain: MRGSHHHHHHGILQETCGTMVRALMPCLPFVQGKEKEPSKGLQIQTAMKTYSDIDGKLVSEVPKHCGIVDSKLPPIDVNMDCKTLGVVPRQPQLPVSLRHGPVTGPSDPAHKARLERPQIRVPPPAPEKAEFEEACGKVVQDIMPCLHFVKGEEKEPSKEDIIVRATKGISGIKNELVAEVPKKCDIKTTLPPITADFDCSKIQSTIFRGYY
maximum degree of inhibition of IgE binding to P. judaica extract [1]: 60%
fold less allergenic than the chimeric protein Q1 [4]: 20 times
reduction of allergenicity (IgE-binding) against nPar j 1-Par j 2 [2]: 100%
fold higher protein concentration than nPar j 1-Par j 2 for the same degree of inhibition [3]: 10000 times

B3: chimeric protein Q1 (protein)
chain: MRGSHHHHHHGILQETCGTMVRALMPCLPFVQGKEKEPSKGCCSGAKRLDGETKTGPQRVHACECIQTAMKTYSDIDGKLVSEVPKHCGIVDSKLPPIDVNMDCKTLGVVPRQPQLPVSLRHGPVTGPSDPAHKARLERPQIRVPPPAPEKAEFEEACGKVVQDIMPCLHFVKGEEKEPSKECCSGTKKLSEEVKTTEQKREACKCIVRATKGISGIKNELVAEVPKKCDIKTTLPPITADFDCSKIQSTIFRGYY
degree of inhibition of IgE binding to P. judaica extract [1]: 50%
fold more protein needed than nPar j 1-Par j 2 [3]: 500 times
